Experiments:
[1] = target: CD20 on Jeko-1, Raji and Daudi cells (human) (UniProt P11836); assay: cell-based MSD electrochemiluminescence binding assay on CD20 expressing Jeko-1 cells
[2] = target: FcγRIIIa 158V receptor (SPR assay) (UniProt P08637); assay: SPR, receptor amine-coupled to the chip, antibody injected, 1:1 kinetics
[3] = target: FcγIIIA Receptor on the effector cells (human) (UniProt P08637); assay: cell-based or functional assay
[4] = target: C1q in the complement system (rabbit serum as the source of complement) (rabbit); assay: cell-based or functional assay
[5] = target: FcγRIIIa 158F receptor (SPR assay) (UniProt P08637); assay: SPR, receptor amine-coupled to the chip, antibody injected, steady state affinity
Chain of FcγRIIIa 158F receptor (SPR assay) (P08637 17-208 limits assumed): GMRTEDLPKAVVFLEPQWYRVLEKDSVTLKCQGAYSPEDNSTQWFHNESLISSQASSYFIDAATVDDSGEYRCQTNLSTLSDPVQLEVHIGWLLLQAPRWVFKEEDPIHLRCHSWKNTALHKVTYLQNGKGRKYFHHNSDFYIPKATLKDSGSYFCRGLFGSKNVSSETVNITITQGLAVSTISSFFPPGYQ

[6] = target: FcγRIIIA V158 (human Fc receptor panel, Octet) (human) (UniProt P08637); assay: BLI (Octet HTX), receptor on anti-penta-His biosensor, 1:1 model
Chain of FcγRIIIA V158 (human Fc receptor panel, Octet) (human) (P08637 17-208 F176V limits assumed): as the sequence (P08637 17-208 limits assumed) above, with F160V counted along it

[7] = target: FcγRIIA (human Fc receptor panel, Octet) (human) (UniProt P12318); assay: as above
Chain of FcγRIIA (human Fc receptor panel, Octet) (human) (P12318 36-218 limits assumed): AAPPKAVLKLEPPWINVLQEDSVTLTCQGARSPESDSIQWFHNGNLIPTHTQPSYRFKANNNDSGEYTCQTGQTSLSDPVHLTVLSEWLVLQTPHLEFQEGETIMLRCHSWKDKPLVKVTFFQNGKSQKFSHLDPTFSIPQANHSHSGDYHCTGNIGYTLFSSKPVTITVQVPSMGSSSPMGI

[8] = target: FcγRIIIA F158 (human Fc receptor panel, Octet) (human) (UniProt P08637); assay: as above
Chain of FcγRIIIA F158 (human Fc receptor panel, Octet) (human) (P08637 17-208 limits assumed): as the sequence (P08637 17-208 limits assumed) above

[9] = target: FcγRI (human Fc receptor panel, Octet) (human) (UniProt P12314); assay: as above
Chain of FcγRI (human Fc receptor panel, Octet) (human) (P12314 16-288 limits assumed): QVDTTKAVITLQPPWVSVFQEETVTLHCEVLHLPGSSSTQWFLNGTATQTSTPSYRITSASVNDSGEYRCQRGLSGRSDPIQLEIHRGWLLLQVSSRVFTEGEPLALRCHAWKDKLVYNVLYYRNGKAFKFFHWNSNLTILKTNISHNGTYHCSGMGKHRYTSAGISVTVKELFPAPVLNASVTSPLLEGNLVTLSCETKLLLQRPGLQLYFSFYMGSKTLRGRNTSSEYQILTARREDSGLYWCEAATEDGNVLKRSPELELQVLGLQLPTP

[10] = target: FcRn (human Fc receptor panel, Octet) (human) (UniProt P55899); assay: as above
Chain of FcRn (human Fc receptor panel, Octet) (human) (P55899 24-297 limits assumed, chain 1 of 2): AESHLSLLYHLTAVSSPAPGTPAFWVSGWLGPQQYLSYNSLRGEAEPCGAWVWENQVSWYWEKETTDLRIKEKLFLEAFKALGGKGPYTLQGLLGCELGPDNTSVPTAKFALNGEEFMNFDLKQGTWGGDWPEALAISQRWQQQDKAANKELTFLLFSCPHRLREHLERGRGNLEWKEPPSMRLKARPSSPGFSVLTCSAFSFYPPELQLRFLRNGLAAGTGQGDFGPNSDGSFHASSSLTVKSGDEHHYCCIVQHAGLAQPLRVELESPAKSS
Chain of FcRn (human Fc receptor panel, Octet) (human) (P61769 21-119 limits assumed, chain 2 of 2, further chain): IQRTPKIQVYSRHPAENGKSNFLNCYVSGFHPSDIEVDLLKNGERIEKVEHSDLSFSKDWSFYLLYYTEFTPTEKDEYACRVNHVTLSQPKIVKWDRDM

[11] = target: FcγRIIIB (human Fc receptor panel, Octet) (human) (UniProt O75015); assay: as above
Chain of FcγRIIIB (human Fc receptor panel, Octet) (human) (O75015 17-200 limits assumed): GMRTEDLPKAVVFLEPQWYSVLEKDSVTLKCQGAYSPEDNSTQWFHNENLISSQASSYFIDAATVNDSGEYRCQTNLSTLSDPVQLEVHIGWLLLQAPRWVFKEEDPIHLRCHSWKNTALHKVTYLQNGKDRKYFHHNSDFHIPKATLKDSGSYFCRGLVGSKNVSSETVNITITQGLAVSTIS

[12] = target: FcγRIIB/C (human Fc receptor panel, Octet) (human) (UniProt P31994); assay: as above
Chain of FcγRIIB/C (human Fc receptor panel, Octet) (human) (P31994 46-217 limits assumed): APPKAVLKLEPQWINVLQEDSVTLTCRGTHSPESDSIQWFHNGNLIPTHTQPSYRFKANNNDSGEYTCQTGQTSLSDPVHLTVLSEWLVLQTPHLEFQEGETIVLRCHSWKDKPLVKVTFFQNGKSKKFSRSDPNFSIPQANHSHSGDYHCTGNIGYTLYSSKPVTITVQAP

[13] = target: FcγRIIIa 158V receptor (SPR assay) (UniProt P08637); assay: SPR, relative to the TG-1101 reference standard
[14] = target: FcγRIIIa 158F receptor (SPR assay) (UniProt P08637); assay: SPR, relative to the TG-1101 reference standard
[15] = target: HRP conjugated human C1q (human) (UniProt P02745); assay: ELISA, antibody coated on the plate, HRP conjugated human C1q
Chain of HRP conjugated human C1q (human) (P02745 23-245 limits assumed, chain 1 of 3): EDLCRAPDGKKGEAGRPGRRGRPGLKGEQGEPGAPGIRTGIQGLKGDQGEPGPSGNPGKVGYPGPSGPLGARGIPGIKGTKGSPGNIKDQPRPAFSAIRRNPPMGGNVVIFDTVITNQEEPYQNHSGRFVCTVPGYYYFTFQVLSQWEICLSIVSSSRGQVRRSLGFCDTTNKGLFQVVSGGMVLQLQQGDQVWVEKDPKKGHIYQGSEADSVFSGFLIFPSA
Chain of HRP conjugated human C1q (human) (P02746 28-253 limits assumed, chain 2 of 3, further chain): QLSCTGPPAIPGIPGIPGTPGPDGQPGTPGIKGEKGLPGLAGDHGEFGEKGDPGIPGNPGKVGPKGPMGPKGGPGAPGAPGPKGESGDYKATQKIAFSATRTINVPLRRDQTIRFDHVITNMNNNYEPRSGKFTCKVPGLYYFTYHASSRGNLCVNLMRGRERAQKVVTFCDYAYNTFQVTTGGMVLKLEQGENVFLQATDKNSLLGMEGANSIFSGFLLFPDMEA
Chain of HRP conjugated human C1q (human) (P02747 29-245 limits assumed, chain 3 of 3, further chain): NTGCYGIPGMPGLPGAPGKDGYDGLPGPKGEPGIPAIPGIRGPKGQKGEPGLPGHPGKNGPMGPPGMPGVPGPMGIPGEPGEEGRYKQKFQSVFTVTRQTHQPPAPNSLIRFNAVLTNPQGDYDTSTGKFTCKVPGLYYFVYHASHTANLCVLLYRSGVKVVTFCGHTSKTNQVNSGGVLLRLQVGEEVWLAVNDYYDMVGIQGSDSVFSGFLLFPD

Chain of FcγRIIIa 158V receptor (SPR assay) (P08637 17-208 F176V limits assumed): as the sequence (P08637 17-208 limits assumed) above, with F160V counted along it
Chain of FcγIIIA Receptor on the effector cells (human) (P08637 17-254): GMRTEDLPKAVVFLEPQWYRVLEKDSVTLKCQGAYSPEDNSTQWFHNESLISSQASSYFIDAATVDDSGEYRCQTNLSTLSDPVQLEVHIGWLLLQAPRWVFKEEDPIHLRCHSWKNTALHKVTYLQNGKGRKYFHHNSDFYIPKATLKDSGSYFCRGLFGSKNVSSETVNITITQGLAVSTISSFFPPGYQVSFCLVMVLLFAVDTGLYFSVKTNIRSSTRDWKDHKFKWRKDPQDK
Chain of CD20 on Jeko-1, Raji and Daudi cells (human) (P11836 whole entry): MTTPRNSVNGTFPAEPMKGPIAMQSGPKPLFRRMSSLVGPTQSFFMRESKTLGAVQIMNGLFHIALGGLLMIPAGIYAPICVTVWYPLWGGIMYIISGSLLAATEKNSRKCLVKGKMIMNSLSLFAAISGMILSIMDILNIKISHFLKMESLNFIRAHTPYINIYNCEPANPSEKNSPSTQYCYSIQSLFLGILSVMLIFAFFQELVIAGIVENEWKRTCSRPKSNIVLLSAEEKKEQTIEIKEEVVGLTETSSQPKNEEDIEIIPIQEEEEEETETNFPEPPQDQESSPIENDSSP

| Substance | EC50 [1] [µg/mL] | Kd [2] [nM] | ADCC EC50 (Raji target cells, KILR CD16a effector cells) [3] [pg/mL] | EC50 of ADCC assay Using Primary NK Cells (Raji target cells, LDH release) [3] [µg/mL] | CDC EC50 (Jeko-1 cells, rabbit serum complement) [4] [ng/mL] | Kd [5] [µM] | Kd [6] [nM] | Kd [7] [nM] | Kd [8] [nM] | Kd [9] [nM] | Kd [10] [nM] | Kd [11] [nM] | Kd [12] [nM] | Relative Affinity (%) [13] [%] | Relative Binding (%) [13] [%] | Relative Affinity (%) [14] [%] | Relative Binding (%) [14] [%] | EC50 [15] [µg/mL] |
| --- | --- | --- | --- | --- | --- | --- | --- | --- | --- | --- | --- | --- | --- | --- | --- | --- | --- | --- |
| ARZERRA (ofatumumab) (antibody) | 0.092 | 1640 | 74.1 | 500 | 353 | 14.8 | 207 | 232 | 482 | 21 | 64 | 307 | 156 |  |  |  |  |  |
| GAZYVA (obinutuzumab) (antibody) | 0.053 | 242 | 6.58 | 19 |  | 1.79 | 40 | 281 | 98 | 26 | 39 | 277 | 225 | 27.6 | 19.6 | 37.6 | 33 |  |
| OCREVUS (ocrelizumab) (antibody) |  | 1030 | 60.8 |  | 1210 | 6.76 | 138 | 624 | 592 | 19 | 62 | 2090 | 362 |  |  |  |  | 2.9 |
| RITUXAN (rituximab) (antibody) | 0.133 | 1200 | 5460 | 1390 | 245 | 6.96 |  | 253 |  | 15 | 43 | 309 | 211 |  |  |  |  |  |

From patent publication US11965032
